This is an account of results in patent US20190302117.

Series [1] concerns the target T1, Peptide 10: EDPIYVTLEGGKKK (version of peptide 2 used for the kinetic experiments).
T1 chain: EDPIYVTLEGGKKK

Series [2] has as its target T2, Peptide 11: DEAIYATVAGGKKK (version of peptide 5 used for the kinetic experiments).
T2 chain: DEAIYATVAGGKKK

B1: GST-FLT3 564-993 (intracellular portion of human FLT3 fused to GST) (protein)
chain: HKYKKQFRYESQLQMVQVTGSSDNEYFYVDFREYEYDLKWEFPRENLEFGKVLGSGAFGKVMNATAYGISKTGVSIQVAVKMLKEKADSSEREALMSELKMMTQLGSHENIVNLLGACTLSGPIYLIFEYCCYGDLLNYLRSKREKFHRTWTEIFKEHNFSFYPTFQSHPNSSMPGSREVQIHPDSDQISGLHGNSFHSEDEIEYENQKRLEEEEDLNVLTFEDLLCFAYQVAKGMEFLEFKSCVHRDLAARNVLVTHGKVVKICDFGLARDIMSDSNYVVRGNARLPVKWMAPESLFEGIYTIKSDVWSYGILLWEIFSLGVNPYPGIPVDANFYKLIQNGFKMDQPFYATEEIYIIMQSCWAFDSRKRPSFPNLTSFLGCQLADAEEAMYQNVDGRVSECPHTYQNRRPFSREMDLGLLSPQAQVEDS
Take B1: in series [1], the Km – broadly, the substrate concentration at which the rate is half of its maximum – was 41 µM; the turnover number (kcat) (commonly the maximal rate divided by the concentration of active sites) turned out to be 0.013 s⁻¹; the specificity constant (kcat/Km) (usually the second-order rate constant that governs catalysis at low substrate concentration) was 304 M⁻¹ s⁻¹.

B2: His6-ALK 1090-1416 (protein)
chain: HHHHHHTDYNPNYCFAGKTSSISDLKEVPRKNITLIRGLGHGAFGEVYEGQVSGMPNDPSPLQVAVKTLPEVCSEQDELDFLMEALIISKFNHQNIVRCIGVSLQSLPRFILLELMAGGDLKSFLRETRPRPSQPSSLAMLDLLHVARDIACGCQYLEENHFIHRDIAARNCLLTCPGPGRVAKIGDFGMARDIYRASYYRKGGCAMLPVKWMPPEAFMEGIFTSKTDTWSFGVLLWEIFSLGYMPYPSKSNQEVLEFVTSGGRMDPPKNCPGPVYRIMTQCWQHQPEDRPNFAIILERIEYCTQDPDVINTALPIEYGPLVEEEEKVPVRPK
B2: in series [1], the 2/5 kcat/Km ratio (peptide 2 against peptide 5) amounted to 1.23, the Michaelis-Menten constant (Km) was more than 200 µM, the turnover number (kcat) was more than 0.02 s⁻¹ and the kcat/Km was determined as 95 M⁻¹ s⁻¹. Further, in series [2], the Michaelis constant (Km) was more than 200 µM, the kcat is more than 0.02 s⁻¹ and the catalytic efficiency (kcat/Km) worked out at 79 M⁻¹ s⁻¹.

B3: BTK as GST fusion protein (protein)
chain: MAAVILESIFLKRSQQKKKTSPLNFKKRLFLLTVHKLSYYEYDFERGRRGSKKGSIDVEKITCVETVVPEKNPPPERQIPRRGEESSEMEQISIIERFPYPFQVVYDEGPLYVFSPTEELRKRWIHQLKNVIRYNSDLVQKYHPCFWIDGQYLCCSQTAKNAMGCQILENRNGSLKPGSSHRKTKKPLPPTPEEDQILKKPLPPEPAAAPVSTSELKKVVALYDYMPMNANDLQLRKGDEYFILEESNLPWWRARDKNGQEGYIPSNYVTEAEDSIEMYEWYSKHMTRSQAEQLLKQEGKEGGFIVRDSSKAGKYTVSVFAKSTGDPQGVIRHYVVCSTPQSQYYLAEKHLFSTIPELINYHQHNSAGLISRLKYPVSQQNKNAPSTAGLGYGSWEIDPKDLTFLKELGTGQFGVVKYGKWRGQYDVAIKMIKEGSMSEDEFIEEAKVMMNLSHEKLVQLYGVCTKQRPIFIITEYMANGCLLNYLREMRHRFQTQQLLEMCKDVCEAMEYLESKQFLHRDLAARNCLVNDQGVVKVSDFGLSRYVLDDEYTSSVGSKFPVRWSPPEVLMYSKFSSKSDIWAFGVLMWEIYSLGKMPYERFTNSETAEHIAQGLRLYRPHLASEKVYTIMYSCWHEKADERPTFKILLSNILDVMDEES
Turning to B3, in series [1], the 2/5 kcat/Km ratio (peptide 2 against peptide 5) amounted to 0.31, the Michaelis constant (Km) was 64 µM, the turnover number (kcat) came out at 0.061 s⁻¹ and the kcat/Km came to 970 M⁻¹ s⁻¹. For the same protein, in series [2], the Km was 84 µM, the catalytic constant (kcat) was 0.26 s⁻¹ and the kcat/Km came out at 3170 M⁻¹ s⁻¹.
